This note sets out measurements from patent publication US20250059297A1.

The target in assay [1] is human TROP2 (hTROP2) on cells (human). The experiment in a line: flow cytometry, NCI-N87 cells (express HER2 and TROP2).
Assay [2] has the same target. The assay can be described thus: flow cytometry, NCI-H292 cells (express HER2 and TROP2).
Assay [3] has the same target. The experiment in a line: cell-based or functional assay.

human TROP2 (hTROP2) on cells (human), sequence (P09758 whole entry): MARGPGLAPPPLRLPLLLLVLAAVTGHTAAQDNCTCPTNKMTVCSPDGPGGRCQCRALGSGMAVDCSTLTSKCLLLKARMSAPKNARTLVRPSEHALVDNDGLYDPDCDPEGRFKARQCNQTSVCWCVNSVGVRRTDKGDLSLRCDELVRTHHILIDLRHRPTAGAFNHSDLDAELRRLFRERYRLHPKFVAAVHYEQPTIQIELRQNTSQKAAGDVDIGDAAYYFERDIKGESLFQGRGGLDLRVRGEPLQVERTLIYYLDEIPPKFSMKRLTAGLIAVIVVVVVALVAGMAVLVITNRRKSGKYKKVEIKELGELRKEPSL

B1: Sacituzumab govitecan antibody analog (antibody, INN chains, looked up, V domains shown)
VH: QVQLQQSGSELKKPGASVKVSCKASGYTFTNYGMNWVKQAPGQGLKWMGWINTYTGEPTYTDDFKGRFAFSLDTSVSTAYLQISSLKADDTAVYFCARGGFGSSYWYFDVWGQGSLVTVSS
VL: DIQLTQSPSSLSASVGDRVSITCKASQDVSIAVAWYQQKPGKAPKLLIYSASYRYTGVPDRFSGSGSGTDFTLTISSLQPEDFAVYYCQQHYITPLTFGAGTKVEIKR
As for B1, in assay [1], the flow cytometry test result (%) is 98.7%. The molecule further registered a flow cytometry test result (%) in assay [2] of 97.4%. In assay [3], the endocytosis, direct detection: MFI was 16600; the endocytosis, direct detection: Percentage of Positive Population came to 70.1%; the endocytosis, indirect detection: MFI was found to be 16100; the endocytosis, indirect detection: Percentage of Positive Population was found to be 72.2%. In assay [3], this molecule came in with an endocytosis: MFI of 23000 and an endocytosis: Percentage of Positive (%) of 51.2%.

B2: DS-1062 antibody analog (antibody, INN chains, looked up, V domains shown)
VH: QVQLVQSGAEVKKPGASVKVSCKASGYTFTTAGMQWVRQAPGQGLEWMGWINTHSGVPKYAEDFKGRVTISADTSTSTAYLQLSSLKSEDTAVYYCARSGFGSSYWYFDVWGQGTLVTVSS
VL: DIQMTQSPSSLSASVGDRVTITCKASQDVSTAVAWYQQKPGKAPKLLIYSASYRYTGVPSRFSGSGSGTDFTLTISSLQPEDFAVYYCQQHYITPLTFGQGTKLEIK
As for B2, in assay [3], the endocytosis: MFI is 21800 and the endocytosis: Percentage of Positive (%) was 43.9%.
